Data as given in the DeepSol protein solubility set.

Experiment: soluble on expression in E. coli; label from the status in PepcDB or PDB records

| Sequence | soluble on expression in E. coli |
| --- | --- |
| MYLCEEHFKEYFERKVARTIEKYKLASKDERILVAVSGGKDSAVTAYVLKKLGYKIECLHLNLGIGEYSEKSEIYAKKQCEFIGAPLNIIRVKELLGYGIGEVRTSRPTCSYCGLTKRYIMNKFAYDNGFDAVATGHNLDDEASFLMNNLLHWNTEYLAKGGPLLPGEGKFVKKIKPLYELTEREVVAYAIAVGLEYIVEECPYARGATTLDMKEVLNELEEKRPGTKFNFVRGFLRKKKLFEPEVKGKDLKECKICGMPASGEICSFCKFWKLGKPLTFKIK | not soluble |
| MDRHTTEGWRRWAARLGAAAMALLLAACAAPRQQAASVDELPSWNDGPSRTAIVEFVRAVTRSGGPDFVAADERIAVFDNDGTLWSEQPMYFQMLFALDRVKSMAPRHPDWARRQPFKAALQDDHAALAKGGDVALMKIVGATHTDMSTDTFTRSVRYWASTARHPRFDRLYTELTFAPMRELLDYLRAHGFKTYIVSGGETEFMRSWTQQAYGIPPEQVIGSSFVTTYGVRDGEPTLWRHGKLEFNDDGPGKPVAIQRYIGRRPILAFGNSDGDLQMLQWTAAGDGKRFAGLVHHTDAQREWAYDRDSRIGRLDRALDEARRQDWTVVDMKTEWKRVYAFEQP | not soluble |
| MNSLLRLSHLAGPAHYRALHSSSSIWSKVAISKFEPKSYLPYEKLSQTVKIVKDRLKRPLTLSEKILYGHLDQPKTQDIERGVSYLRLRPDRVAMQDATAQMAMLQFISSGLPKTAVPSTIHCDHLIEAQKGGAQDLARAKDLNKEVFNFLATAGSKYGVGFWKPGSGIIHQIILENYAFPGLLLIGTDSHTPNGGGLGGLCIGVGGADAVDVMADIPWELKCPKVIGIKLTGKLNGWTSAKDVILKVADILTVKGGTGAIVEYFGPGVDSISATGMGTICNMGAEIGATTSVFPYNESMYKYLEATGRKEIAEEARKYKDLLTADDGANYDQIIEINLDTLTPHVNGPFTPDLASSIDKLGENAKKNGWPLDVKVSLIGSCTNSSYEDMTRAASIAKQALDKGLKAKTIFTITPGSEQVRATIERDGLSKIFADFGGMVLANACGPCIGQWDRQDVKKGEKNTIVTSYNRNFTGRNDANPATHGFVTSPDITTAMAISGRLDFNPLTDELTAADGSKFKLQAPTGLDLPPKGYDPGEDTFQAPSGSGQVDVSPSSDRLQLLSPFDKWDGKDLEDMKILIKVTGKCTTDHISAAGPWLKYRGHLDNISNNLFLTAINADNGEMNKVKNQVTGEYGAVPATARKYKADGVRWVAIGDENYGEGSSREHAALEPRHLGGRAIIVKSFARIHETNLKKQGMLPLTFANPADYDKIDPSDNVSIVGLSSFAPGKPLTAIFKKTNGSKVEVTLNHTFNEQQIEWFKAGSALNRMKEVFAKSK | soluble |
| HGIQLLGYARKILRFNDEACSSLMFSNLQGVLTIGASDESADTILPFLLNRVSSVYPKLALDVRVKRNAYMAEMLESQEVDLMVTTHRPSAFKALNLRTSPTHWYCAAEYILQKGEPIPLVLLDDPSPFRDMVLATLNKADIPWRLAYVASTLPAVRAAVKAGLGVTARPVEMMSPDLRVLSGVDGLPPLPDTEYLLCYDPSSNNELAQVIYQAMESYHNPWQYSPMSAPEGDDSLLIERDIE | soluble |
| MGSDKIHHHHHHMLSLRHSCPRRALKVPNPFVEEAGPQPPKVLKAPVEIQANLRLLQDSRDSLLITFADRNQRFQSFLVDIDRDRGMVALDELIPNTGERFLQNGEAFRVEAFHEGVRIAWECERPVQFGEHDGVPCYWAALPAEVLYHQRRNAYRASIKQSQPIAAEIAGEKLRAPLSGQLLDISATGAKLRFAGNVAERLHPGEIYEDFSAQLPQGAISSAIELRHVRFDEKLDATFAGVRFSEMSGLAQRQVDRFVYQLQREARRFEKDELF | not soluble |
| MAHHHHHHMLRRVIVGGVCRRASPSIAGRMVAARYAATIPTSTVASTTMSSSPTSRDDASTRAVVSEVPNLSFLASKTVLAETVEQTIEVCEALLNEIPKVKGAKEKHDLIDSTSNVLCLLLDPCEFVRQIHPDEEYKKHAAYAFQKGYEYMSKVNSRRDLYDVIVELDSPEGRKQLDDEEIKNVVQLKRDMESNGIHLSDALREKVTEMNIEKEDLAMRFLTEQGAKNPFATLRYLLRCRYELAKLLGFESYAEQQLRGTMLGNQQSVWHFLCGIAHKYRSAAEKELNLIRQNVGEVRNRQNITDDTRARVAHSLRRDAEPAKAEEYFSVANCIRGIQCLCSEVFGLRLEEVPFEREEVFNPDAKKFYVYDENRAFLGIIVLDMYASDMKYCQAGHLTLQLGCKPHQEALARVGLKLPERQYPVVVLTCNVGALTPAQRLPNGRFDDESTLMHPSEVTTVFHEFGHAMHTIFGQTKVQNLAGTRSSIDFVETFSQLFEHFLTSHEFLRLWAHRINTREPISFDIVMKRNAAADMFKHLDMLDQVVLSAVDQTLHGPQPYTVYFPHGQNGHLGKRTLGDSSDYGRGTYNLAKILIDVCTPLSIVTPTESGVLGTLSFEHLSGYPAGYYGYLYSLSVARRIWSKKFEKDPLNRAAGKELVQEVMRHGAACNPVEVIEKYLGDNLDEIDIWA | not soluble |
| QTIFRVQTPYTHNGYMKTECYAFDFAPDRTLRVLAEAAKVSYKAGKQSESDRKLLGDFLNFCPIISIEGSRMKPYDVNTMLGQLKRAQIEKVVQDGFENGALYNDELLKLTEVELHDFDELKGIIGKTKAMAKSGDIDINHQGLTHEQYEEKERLEKRKKKGLTPEEKKRLDELKAKGDQRREAISILRGISIRMPLMLYGAEMKDEDKELTIDNFANLVDEQSWQEFMPRGVTKAVFRRFKRYYDPDIFREAGKRIREMARMADKFTIEERIGRIASIFSTFRNPDKETVLTPWRVVNMHLGDSIGGYCFMSEDFSTPIALPRYIEHQGITNEVFHPKSIILEINSKSGLYPLYAAYNIYRTRVEEAREKYGDVTRAFALQLWDRTLEENIFVVCKTPMARYITMRTLRGFRDVVTHTEHYPDLIENITSQPDSVVNMLRSGKRFWKINNDENMKIDAIIGNPPYQVMNQGKGNGSDPIYHKFFDLAMVLAPQGTLIHPARFLFNAGKTPKEWNEKMLSDKHYRVVDYWPNSAEVFPTVDVKGGIATSYWNKKMILGPIGMFSAFDELHHILYKVEQTNPLPFSNLVAPRELYRITDELYQEHPDLNGRQSAGHKYSFGANIFDVFPEVFFDEYPQGREEKMACIYGRANKQRCYKWCKRSYITHPENFAKYKVIIPKTNGSGAIGE | not soluble |
| MKNLINWFEIPVTDMARAIAFYEQVMQISLRRETMDGADLAVFPYAEPGPGGALIKQDDVAPVAQGVVIYLHTADLLASIERVVLAGGKCVLEPMVPGDDIGTIALFIDSEGNRIGLHQPALEHHHHHH | not soluble |
| GAKPRNLNVSFQGCGMDSLSVRAMDTDTLTQVKEKILEAFCKNVPYSQWPRAEDVDLEWFASSTQSYILRDLDDTSVVEDGRKKLNTLAHYKIPEGASLAMSLIDKKDNTLGRVKDLDTEKYFHLVL | soluble |
| MAQRNLDYRLLKDRRNEYGVSQNKLAIACGLSRTYLNLIENGGVTASTKTMRKIFDQLESFNPDLPLTLLFDYVRIRFSTTDVRKIIQELLHLKFEYMLHEDYAFYSYQEQYVMGDIVVMLSHEEDKGVLLELKGRGCRQFETFLLAQKRSWYDFFEDCLKTGGVMKRLDLAINDRVGLLDISDLTKKCQKEECISLFRTFKSYRSGELLKADEKDGMGNTLYIGSLKSEVYFCLYEKDYEQYIKLGIPLDQTETKNRFEIRLKNDRAYHAIQDLLKGRSIESTTFSIINRYLRFADKVEGKRRTNWPLNEQWGRFIGRNRKEIQLTSEPKPYTIERTLNWLGRQVAPTWKMAKELDRLNQTTYIQDMVRNARLSDQHKKILEQQSMAIENLIV | not soluble |
| MGSDKIHHHHHHMKKKDMNKQVKIQDAVAAIILAEGPAGVSTTKVAKRVGIAQSNVYLYFKNKQALIDSVYARETNRILSTTDLDRLSDSTIDVTTRIRLYVQQVYDYSLANPDSLTIIQQIKALNGQGMTISAADADPNNIVANLLTAAIDAKVIKQLPVSLHMGVVFSTIHTHTTNISKGRYAQDQYTFGDIFQMIWDAMKQD | not soluble |
| MSLRILLVDDVQLDRMQLAIRLKQLGHIVKAVGSGIEALNTYESFDPELVLLDISMPEMNGFEVSLHVRETFPDWIPIIFLSSHEEPEMIAKAIDAGGDDYLIKPVDKLVLNSKLIAMQRIAHMRRELKQATAQLEQVNQLLTQQANEDGLTKLFNRRYIDQKLDSMVAWHGRHHMPMAMILLDVDFFKPFNDNYGHIEGDRCLQAIANQLKATFCRSGEYVGRYGGEEFVVLLSSTDAQTAEREAERIQEAMYFLDYQHEFSSVANRVTVSQGVFVFQPTGKENQADLYATADRALYTSKSLGRNTYTMVNASEGHHHHHH | soluble |
| MEEPKLILTVKNNKNNKCIIEILNRLYLKDLNSKAEEIIKNVILVYTSLTPIMAYGLLISAPPSCLAKIYPVDLVIHSVKEREIIDKITEFLKKNIQFKTFYVDCYDRGIKINCREVEIGIGIGLRGFASVDYKNPEKVIVVNVIKDSTYMSVIKKGQEKVSVISLR | soluble |
| MGSDKIHHHHHHMICMAVGIASLLFNIEEALNICESIKQITHLEIGIDNISECSELCKYKERISKLGLSIGIHLPMELNTCENIEYIRNSWINFIEKIEFELKGFDLRYFNLHLGYVMTNRVRKNRDKYLGNSVDFLDKLNTNSYVCIENTYSKGGDFSNIGNISYDFEYIFKRIKNSKICFCYDTGHCLIDEDAYVKNLKDKIRLIHLSDNDGINDTHVGIGRGILSEEGIKEVLTLDAEYLVLEINYEDIEDTISKLNNIVGEG | not soluble |
| MGSDKIHHHHHHVDLGHDVTLFASGDSITSAKLDACWPRALRLDPTIRDALAPHMLMMEKVRKVAHEFDVLHFHLDYMPFPLFTTMDTPFVTTLHGRLDLPELQPVFDACSNVPVVSISDSQRQPLPQANWLNTIYHGLPEQLLTPQAHKKPEYLAFLGRICPEKRVDTAIRIAAQSGLPLKIAAKVDKVDQEYFKREIEPLLSMAHVEFVGEINEAQKPEFLSSAKALLFPIDWSESFGLVMIESMACGTPVIAFNRGSVPEVIDHGVTGYIVEDVQGAVAALQRLDELSRTEMRGRRLNLPLEKMRDWRIGSRVCRHHAG | not soluble |
| VSSQKTSSLPKYTPKVNSSINNYIRKKNMKAPRIEEDYTSYFPKYGYRNGVGRPEGIVVHDTANDNSTIDGEIAFMKRNYTNAFVHAFVDGNRIIETAPTDYLSWGAGPYGNQRFINVEIVHTHDYDSFARSMNNYADYAATQLQYYNLKPDSAENDGRGTVWTHAAISNFLGGTDHADPHQYLRSHNYSYAELYDLIYEKYLIKTKQVAPWG | soluble |
| MSTASVLDDIDYDSSFEMVEEEKFEKIENTDNSENFQYVSTKGNTVKEVNINSNEKKKKEAPIQILTAMIGKWKLASSENLQEYFTLEKFPEITQMAWEHGITCYKMNGNQLHVHTDLLGKSLIPTIFEFDKPIARDDNAVSTHAEGNMMSTICKRIADGSIVWKVERLIKNGNLVVFNSRGNFRCKRVYKRVN | not soluble |
| MPTLRPESPEEVQEAVRAYPRLRAQGGGTKPALSTPKEGEVLLDLSRLRGLLAYEPEEFVFTAFAGTPIAEVEEALRAHGQYLPFDPPLAGKGATLGGTVAAGLSGPLRHRYGGLRDFLLGVRFVDGEGKVVRGGGKVVKNAAGFPFHRLMVGALGAFGVMVELSFKVFPRPRTTRTLRVRREGLEEALADLERLRLLPLDLLALDFIPPATLELRLGGFERSVEARLKRLQDLLGEGEVLAEDEAHWEAVRDLGFLEGSPVWVKVPAKPHLIPRLEALPLGPRRYLDGGEVLYAGTTEEGLKALREAGLPHLVLRGAEAPLFPEPQGAFFAGVKKALDPKGRFPLG | soluble |
| MADPPPNPSSVPPNGNLTGTPSAGNAAAVAPMAHEKDRQSKEGDEIVTKSGKKYKLGPVLGEGGYGTVFLSQDDDIKIAVIAVSCFPYIIVQNEVWFKEQKKHHVIHVVHNFSSKLLVNTTKYSRSSTVMRFNLHLITRKSTNYLWRLEKNANFVIVKTGIGKMKQSRPLSPQSLHSLIKNFAPRLTNSQKRRVLVLIFLISWSPISLPFLCTSISHHELIGINVLIKKIYVLQYFLNI | not soluble |
